Positions count from the first letter of the chain named. In names and notes the source's numbering stands.
B1: human WT c-Myb TAD (residues 275–327) (domain or fragment, UniProt P10242 275-327, looked up)
chain: PAAAAIQRHYNDEDPEKEKRIKELELLLMSTENELKGQQVLPTQNHTCSYPGW
B2: c-Myb TAD E292D (domain or fragment, human, UniProt P10242 275-327, looked up)
chain: B1 chain with E18D
B3: c-Myb TAD G311A (domain or fragment, human, UniProt P10242 275-327, looked up)
chain: B1 chain with G37A
B4: c-Myb TAD K293H (domain or fragment, human, UniProt P10242 275-327, looked up)
chain: B1 chain with K19H
B5: c-Myb TAD K296H (domain or fragment, human, UniProt P10242 275-327, looked up)
chain: B1 chain with K22H
B6: c-Myb TAD L300A (domain or fragment, human, UniProt P10242 275-327, looked up)
chain: B1 chain with L26A
B7: c-Myb TAD L300G (domain or fragment, human, UniProt P10242 275-327, looked up)
chain: B1 chain with L26G
B8: c-Myb TAD L300P (domain or fragment, human, UniProt P10242 275-327, looked up)
chain: B1 chain with L26P
B9: c-Myb TAD L300V (domain or fragment, human, UniProt P10242 275-327, looked up)
chain: B1 chain with L26V
B10: c-Myb TAD N307A (domain or fragment, human, UniProt P10242 275-327, looked up)
chain: B1 chain with N33A
B11: c-Myb TAD N307G (domain or fragment, human, UniProt P10242 275-327, looked up)
chain: B1 chain with N33G
B12: c-Myb TAD N307P (domain or fragment, human, UniProt P10242 275-327, looked up)
chain: B1 chain with N33P
B13: c-Myb TAD N307V (domain or fragment, human, UniProt P10242 275-327, looked up)
chain: B1 chain with N33V
B14: c-Myb TAD P289A (domain or fragment, human, UniProt P10242 275-327, looked up)
chain: B1 chain with P15A
B15: c-Myb TAD P289A/P316A (domain or fragment, human, UniProt P10242 275-327, looked up)
chain: B1 chain with P15A, P42A
B16: c-Myb TAD S304A (domain or fragment, human, UniProt P10242 275-327, looked up)
chain: B1 chain with S30A
B17: c-Myb TAD S304G (domain or fragment, human, UniProt P10242 275-327, looked up)
chain: B1 chain with S30G
B18: c-Myb TAD S304P (domain or fragment, human, UniProt P10242 275-327, looked up)
chain: B1 chain with S30P
B19: c-Myb TAD S304V (domain or fragment, human, UniProt P10242 275-327, looked up)
chain: B1 chain with S30V

The binders below were run against KIX domain of human CBP (residues 586–672) (human, UniProt Q92793 586-672) (assay: ITC).
KIX domain of human CBP (residues 586–672), sequence (Q92793 586-672): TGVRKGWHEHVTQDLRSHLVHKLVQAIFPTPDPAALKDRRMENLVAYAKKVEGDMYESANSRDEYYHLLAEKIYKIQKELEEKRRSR

Binder	Kd [nM]	dH [kcal/mol]
B1	500 ± 30	-10.5 ± 0.4
B2	630 ± 20	-11.22 ± 0.05
B3	460 ± 30	-10.1 ± 0.26
B4	780 ± 60	-11.1 ± 2.1
B5	870 ± 50	-13.8 ± 0.48
B6	670 ± 80	-9.26 ± 0.39
B7	2240 ± 20	-11.33 ± 0.04
B8	290000 ± 101000	-1.34 ± 0.29
B9	820 ± 50	-11.38 ± 0.11
B10	410 ± 70	-8.29 ± 0.6
B11	610 ± 40	-9.26 ± 0.23
B12	950 ± 70	-8.97 ± 0.32
B13	390	-8.44 ± 0.04
B14	620 ± 20	-10.2 ± 0.27
B15	530 ± 20	-9.81 ± 0.1
B16	380 ± 40	-6.94 ± 0.51
B17	710 ± 130	-13.3 ± 2.69
B18	3450 ± 500	-7.35 ± 0.97
B19	1490 ± 290	-8.39 ± 0.93
